Experimental data published in publication PMC6322584.

Target: VvWRKY8-mVenus (Vitis vinifera)
Assay: FRET or BRET; FRET with acceptor photobleaching; VvMYB14-mTRQ2 (donor) and VvWRKY8-mVenus (acceptor) from one pFRETtv-2in1-NN vector in agro-infiltrated tobacco leaves, 3 d after infiltration; bleaching with the 488-nm laser at 100% intensity, 15 frames

VvMYB14-mTRQ2 (natural protein)
FRET efficiency: 38.5%
